Results: ChEMBL document CHEMBL2074219, “Cellular uptake mechanism of amino acid ester prodrugs in Caco-2/hPEPT1 cells overexpressing a human peptide transporter” (Pharm Res, 1998)

What was measured:
[1] = substrate: CN(CC(=O)O)C(=O)CN; assay: TP_TRANSPORTER: uptake in Caco-2 cells; assay type: functional, cell-based
[2] = substrate: CN(CC(=O)O)C(=O)CN; assay: TP_TRANSPORTER: uptake in PEPT1-overexpressing Caco-2 cells; assay type: functional, cell-based

B1: Solute carrier family 15 member 1 (Homo sapiens), P46059 (protein)
chain: MGMSKSHSFFGYPLSIFFIVVNEFCERFSYYGMRAILILYFTNFISWDDNLSTAIYHTFVALCYLTPILGALIADSWLGKFKTIVSLSIVYTIGQAVTSVSSINDLTDHNHDGTPDSLPVHVVLSLIGLALIALGTGGIKPCVSAFGGDQFEEGQEKQRNRFFSIFYLAINAGSLLSTIITPMLRVQQCGIHSKQACYPLAFGVPAALMAVALIVFVLGSGMYKKFKPQGNIMGKVAKCIGFAIKNRFRHRSKAFPKREHWLDWAKEKYDERLISQIKMVTRVMFLYIPLPMFWALFDQQGSRWTLQATTMSGKIGALEIQPDQMQTVNAILIVIMVPIFDAVLYPLIAKCGFNFTSLKKMAVGMVLASMAFVVAAIVQVEIDKTLPVFPKGNEVQIKVLNIGNNTMNISLPGEMVTLGPMSQTNAFMTFDVNKLTRINISSPGSPVTAVTDDFKQGQRHTLLVWAPNHYQVVKDGLNQKPEKGENGIRFVNTFNELITITMSGKVYANISSYNASTYQFFPSGIKGFTISSTEIPPQCQPNFNTFYLEFGSAYTYIVQRKNDSCPEVKVFEDISANTVNMALQIPQYFLLTCGEVVFSVTGLEFSYSQAPSNMKSVLQAGWLLTVAVGNIIVLIVAGAGQFSKQWAEYILFAALLLVVCVIFAIMARFYTYINPAEIEAQFDEDEKKNRLEKSNPYFMSGANSQKQM
B1 showed a Km [1] of 700 µM and a Km [2] of 2100 µM.
